Measured values from PMC6625990, “Structural underpinnings of Ric8A function as a G-protein α-subunit chaperone and guanine-nucleotide exchange factor” (Nature Communications, 2019).
Like-named read-outs stand apart in the source and are kept apart here. Each block holds one substance with its values, some of them ahead of it. No end group written: not given here.

Key:
Ric8A = conditions: read-out: KD previously estimated; cited from earlier work
Ric8A1–492 [1] = molecular target: T1, Ric8A1–492 (Bos taurus, UniProt Q5E9J8); experiment: DSF: thermal stabilization of Ric8A1–492 by Gαt C-terminal peptides; format: binding, bovine
T1 construct: His6 (N); made in house; host or cells: E. coli BL21(DE3)
T1 sequence (Q5E9J8 1-492): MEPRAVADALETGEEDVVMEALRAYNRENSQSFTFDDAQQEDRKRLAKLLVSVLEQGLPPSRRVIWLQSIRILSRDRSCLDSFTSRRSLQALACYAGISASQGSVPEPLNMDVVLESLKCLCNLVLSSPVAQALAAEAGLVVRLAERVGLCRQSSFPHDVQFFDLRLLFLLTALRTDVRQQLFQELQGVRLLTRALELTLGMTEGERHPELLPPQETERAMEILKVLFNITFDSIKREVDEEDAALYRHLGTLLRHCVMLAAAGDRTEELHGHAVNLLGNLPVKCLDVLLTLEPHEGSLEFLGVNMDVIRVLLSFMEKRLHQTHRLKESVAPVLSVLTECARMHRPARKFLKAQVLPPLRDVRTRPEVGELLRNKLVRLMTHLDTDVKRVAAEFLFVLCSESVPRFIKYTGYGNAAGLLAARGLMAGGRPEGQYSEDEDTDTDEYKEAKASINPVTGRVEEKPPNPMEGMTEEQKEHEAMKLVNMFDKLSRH
Method: Fig. 1 Interaction of Ric8A with the C-terminus of Gα. a Thermal denaturation, as determined by differential scanning fluorimetry (DSF), of 8.7 µM Ric8A1–492 in the absence (black) or presence of 50 µM Gαt340–350 (blue) or Gαt333–350 (red). RFU – relative fluorescence units. Average normalized curves are shown. The Tm values (°C) are shown as mean ± SD (n = 3). b Kinetics of association and dissociation for Ric8A1–492 and biotinylated Gαt333–350 coupled to a streptavidin biosensor as determined using BLI. Representative curves are shown.
Stabilities of Ric8A constructs with and without peptide ligands were assessed using differential scanning fluorimetry (DSF), in which an increase in fluorescence of the Sypro Orange dye is measured. Ric8A1–492, Ric8A1–452 and Ric8A1–426 in 20 mM Tris-HCl (pH 7.5) buffer containing 150 mM KCl, 5% glycerol, and 1 mM TCEP with and without peptide were used at a final concentration of 0.5 mg/ml and were supplemented with a 1000-fold dilution of Sypro Orange dye (Invitrogen). Temperature was increased at 1 °C/minute and fluorescence signals were recorded using real-time PCR (C1000 Touch thermal cycler, Bio Rad), with the cycler set to FRET mode and the excitation wavelength set at 450–490 nm and the emission wavelength at 560–580 nm.

Ric8A1–492 [2] = molecular target: T1, Ric8A1–492; experiment: BLI: biotinylated Gα C-terminal peptides (Gαt333–350, Gαs363–380, C1, C2) on streptavidin biosensor binding Ric8A1–492; parameters: species or system bovine; conditions: Octet RED96, N-terminally biotinylated peptide on streptavidin biosensor, 20 mM Tris, 150 mM KCl, 5% glycerol, 1 mM TCEP, 0.5 mg/ml BSA, pH 8.0, 26 °C, 1:1 binding model, mean ± SD, read-out: association constant (ka)
Method: An Octet RED96 system and streptavidin (SA)-coated biosensors (FortéBio, Menlo Park, CA) were used to measure association and dissociation kinetics for Gα peptides or the full-length Avi-tagged Gαt in relation to Ric8A1–492, Ric8A1–452, and Ric8A1–426. To obtain the Avi-tagged Gαt, Gαt was cloned into modified pET21a vector with the N-terminal His6-tag followed by the Avi tag and TEV cleavage site[59]. The Avi-tagged I340Q/N343H mutant of Gαt was prepared by QuikChange protocol. BL21(DE3) cells for expression of the Avi-tagged Gαt were grown in 2TY media supplemented with biotin (10 mg/liter), induced at OD600 of 0.6 with 50 µM IPTG and further grown overnight at 16 °C. Binding studies were performed in 20 mM Tris, 150 mM KCl, 5% glycerol, 1 mM TCEP, 0.5 mg/ml BSA, pH 8.0. […] For each concentration of Ric8A1–492, dissociation rate constant (kd) values were calculated from the corresponding dissociation phases of the curves. These kd values were used to calculate the association rate constant (ka) values from the association phases for each concentration according to the equation1 ka=kobserved-kd∕Ric8A1-492 The average ka and kd were calculated as means of the individual ka and kd values for all curves. Equilibrium dissociation constant KD was calculated as mean kd/mean ka. […]

Ric8A1–492 [3] = molecular target: T1, Ric8A1–492; experiment: BLI: Avi-tagged I340Q/N343H mutant of Gαt binding Ric8A1–492; parameters: species or system bovine
Method: An Octet RED96 system and streptavidin (SA)-coated biosensors (FortéBio, Menlo Park, CA) were used to measure association and dissociation kinetics for Gα peptides or the full-length Avi-tagged Gαt in relation to Ric8A1–492, Ric8A1–452, and Ric8A1–426. To obtain the Avi-tagged Gαt, Gαt was cloned into modified pET21a vector with the N-terminal His6-tag followed by the Avi tag and TEV cleavage site[59]. The Avi-tagged I340Q/N343H mutant of Gαt was prepared by QuikChange protocol. BL21(DE3) cells for expression of the Avi-tagged Gαt were grown in 2TY media supplemented with biotin (10 mg/liter), induced at OD600 of 0.6 with 50 µM IPTG and further grown overnight at 16 °C. Binding studies were performed in 20 mM Tris, 150 mM KCl, 5% glycerol, 1 mM TCEP, 0.5 mg/ml BSA, pH 8.0. All steps were performed at 26 °C, with biosensors stirred into 0.2 ml of sample in each well at 1000 rpm, and at a data acquisition rate of 5.0 Hz. N-terminally biotinylated Gαt333–350, Gαs363–380, C1 peptide and C2 peptide were loaded onto SA sensors at a concentration of 0.05, 0.05, 0.005, and 0.01 mg/ml for 40–90 seconds. Data for association and dissociation phases of the assay were collected as shown in Fig. 1b and Supplementary Figs. 8, 11, 12, and 14. To correct for baseline drift and non-specific binding, reference sensors lacking bound Gα peptide were used in the BLI assays with Ric8A proteins at the highest concentrations. Kinetic data fitting was performed using FortéBio Data Analysis software 10.0. For each concentration of Ric8A1–492, dissociation rate constant (kd) values were calculated from the corresponding dissociation phases of the curves. These kd values were used to calculate the association rate constant (ka) values from the association phases for each concentration according to the equation1 ka=kobserved-kd∕Ric8A1-492 The average ka and kd were calculated as means of the individual ka and kd values for all curves. Equilibrium dissociation constant KD was calculated as mean kd/mean ka. Steady-state data fitting was performed using the GraphPad Prism 7 software with the equation for one site specific binding.
Supplementary Figure 13. (A) Kinetics of association and dissociation of Ric8A1-492 and the Avi-tagged I340Q/N343H mutant of Gαt coupled to a streptavidin biosensor as determined using BLI. Representative experiment is shown. (B) The steady-state binding curve. For experiments performed in […]
(1 picture or pasted object on this page, not shown here)

Ric8A1–492 [4] = molecular target: T1, Ric8A1–492; experiment: SEC complex formation of Gαt C-terminal fusion proteins with Ric8A1–492; format: binding, bovine; conditions: size-exclusion chromatography elution profiles
Description: The C-terminal 18-mer peptide of Gαi corresponding to Gαt333–350, was previously shown to bind to Ric8A[26]. To identify C-terminal constructs of Gα that are suitable for crystallization with Ric8A, we tested one in which the 11 C-terminal residues of Gαt were fused to the B1 domain of Streptococcal protein G (GB1-Gαt340–350) and a second in which the 24 C-terminal residues of Gαt were fused to MBP (MBP-Gαt327–350). For Ric8A, we used a construct that is truncated at the C-terminus (Ric8A1–492) and that had been reported to retain the full functionality of Ric8A[26].
MBP-Gαt327–350 was purified by Ni-NTA chromatography followed by SEC using a HiLoad 16/600 Superdex 200 pg column equilibrated with 20 mM Tris-HCl (pH 7.5) buffer containing 100 mM NaCl, 1 mM EDTA, and 2 mM TCEP. Ric8A1–492/MBP-Gαt327–350 complexes were prepared by mixing the proteins at a 1:1.5 molar ratio in 5 mM maltose and loading the mixture onto a HiLoad 16/600 Superdex 200 pg column equilibrated with 20 mM Tris-HCl (pH 7.5) buffer containing 150 mM KCl, 5% glycerol, and 1 mM TCEP.
75 KDa Peak 1 Peak 2 75 KDa Peak 1 Peak 2
Supplementary Figure 1. Ric8A1-492 forms complexes with GB1-tagged Gαt340-350 andMBP-taggedGαt333-350. […] (B) Peak fractions in A analyzed by SDS-PAGE. […] (D) Peak fractions in C analyzed by SDS-PAGE. […]

Ric8A1–452 = experiment: DSF: thermal stabilization of Ric8A1–452 by Gαt333–350; format: binding, bovine; conditions: 9.1 µM Ric8A1–452, 50 µM peptide, mean ± SD
Method: Stabilities of Ric8A constructs with and without peptide ligands were assessed using differential scanning fluorimetry (DSF), in which an increase in fluorescence of the Sypro Orange dye is measured. […] Temperature was increased at 1 °C/minute and fluorescence signals were recorded using real-time PCR (C1000 Touch thermal cycler, Bio Rad), with the cycler set to FRET mode and the excitation wavelength set at 450–490 nm and the emission wavelength at 560–580 nm.

stabilization effect (Tm shift) on Ric8A1–492 (Ric8A1–492 [1]): ~ 9 °C | kon (Ric8A1–492 [2]): 130000 ± 3e+09 M⁻¹ s⁻¹
Substance: DAVTDIIIKENLKDCGLF [Gαt333–350]

Kd (Ric8A1–492 [3]; BLI steady state, Avi-tagged mutant on streptavidin biosensor, mean ± SD, n = 3 (triplicate), read-out: KD for Ric8A1–492): 2.3 ± 0.4 µM | Kd (Ric8A1–492 [3]; BLI, representative experiment (Suppl. Fig. 13B), read-out: KD, steady-state binding curve): 2.6 µM | Kd (Ric8A1–492 [3]; Suppl Fig 13B BLI steady state, replicate 1, read-out: KD uM (stady state)): 1.95 µM | Kd (Ric8A1–492 [3]; Suppl Fig 13B BLI steady state, replicate 2, read-out: KD uM (stady state)): 2.3 µM | Kd (Ric8A1–492 [3]; Suppl Fig 13B BLI steady state, replicate 3, read-out: KD uM (stady state)): 2.66 µM | decrease of affinity for Ric8A1–492 (Ric8A1–492 [3]; relative to Gαt): about 100 fold
Substance: I340Q/N343H: Avi-tagged double I340Q/N343H mutant of full-length Gαt

Tm of Ric8A1–492 in the presence of peptide (Ric8A1–492 [1]; 8.7 µM Ric8A1–492, 50 µM peptide, mean ± SD (n = 3)): 48.0 ± 0.3 °C | mean Tm of Ric8A1-492 + peptide (Ric8A1–492 [1]; source data, mean of 3 replicates): 48 C | Tm (C ) of Ric8A1-492 + peptide (Ric8A1–492 [1]; source data, replicate 1): 48.1 C | Tm (C ) of Ric8A1-492 + peptide (Ric8A1–492 [1]; source data, replicate 2): 47.69 C | Tm (C ) of Ric8A1-492 + peptide (Ric8A1–492 [1]; source data, replicate 3): 48.35 C
Substance: Gαt340–350: 11-mer C-terminal peptide of Gαt (IKENLKDCGLF)
Tm of Ric8A1–452 in the presence of peptide (Ric8A1–452): 55.75 °C

Further lines, the substance ahead of its results:

Substance: Gα C-terminus: C-terminal 18-mer peptide of Gαi previously shown to bind to Ric8A (ref 26) (DAVTDVIIKNNLKDCGLF; UniProt P63096 337-354, looked up, fragment)
Kd (Ric8A): 12 µM

Substance: MBP-Gαt327–350: 24 C-terminal residues of Gαt fused to MBP (NVKFVFDAVTDIIIKENLKDCGLF; not fully specified (N-terminus); also: N-terminal fusion to modified MBP via AAAH linker, His6 tag)
complex formation with Ric8A1–492 (in words) (Ric8A1–492 [4]): formed complexes with Ric8A1–492 at nearly 1:1 stoichiometry

Substance: GB1-Gαt340–350: 11 C-terminal residues of Gαt fused to the B1 domain of Streptococcal protein G (IKENLKDCGLF; also: fused to GB1 (B1 domain of protein G), end not given here)
complex formation with Ric8A1–492 (in words) (Ric8A1–492 [4]): formed complexes with Ric8A1–492 at nearly 1:1 stoichiometry
